# B1: COVIC-153 (antibody, V domains shown)
# VH: EVQLVESGGGLIQPGGSLRLSCAASGLTVSSNYMSWVRQAPGKGLEWVSIIYSGGSTYYADSVKGRFTISRDNSKNTLYLQMNSLRAEDTAVYYCARLGGYYYYGMDVWGQGTTVTVSS
# VL: DIQMTQSPSSLSASVGERVTITCQASQDIRNYLNWYQKKPGKAPKLLIYDSSNLETGVPSRFSGSGSGTDFTFTISSLQPEDIATYYCQQYDNLPITFGQGTRLEIKR
# B2: COVIC-167 (antibody, V domains shown)
# VH: EVQLVESGGGLIQPGGSLRLSCAASGLTVSSNYMSWVRQAPGKGLEWVSIIYSGGSTYYADSVKGRFTISRDNSKNTLYLQMNSLRAEDTAVYYCARLGGYYYYGMDVWGQGTTVTVSS
# VL: DIQMTQSPSSLSASVGERVTITCQASQDIRNYLNWYQKKPGKAPKLLIYDSSNLETGVPSRFSGGGSGTDFTFTISSLQPEDIATYYCQQYDNLPITFGQGTRLEIKR
# B3: COVIC-149 (antibody, V domains shown)
# VH: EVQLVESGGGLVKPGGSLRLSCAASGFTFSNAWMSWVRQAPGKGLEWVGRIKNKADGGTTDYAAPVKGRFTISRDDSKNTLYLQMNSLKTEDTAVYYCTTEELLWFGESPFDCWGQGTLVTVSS
# VL: DIQLTQSPSFLSASVGDRVTITCWASQGINSYLAWYQQKPGKAPKLLIYAASTLQSGVPSRFSGSGSGTEFTLTISSLQPEDFTTYYCQQFNDYPRTFGPGTKVEIKR
# B4: COVIC-160 (antibody, V domains shown)
# VH: EVQLVESGGGLIQPGGSLRLSCAASGVTVSSNYMSWVRQAPGKGLEWVSVIYSGGSTFYADSVKGRFTISRDNSKNTLYLQMNSLRAEDTAVYYCARDLSYYGMDVWGQGTTVTVSS
# VL: DIQLTQSPSFLSASVGDRVTITCWASQGISSYLAWYQQKPGKAPKLLIYAASTLQSGVPSKFSGSGSGTEFTLTISSLQPEDFATYYCQQLNSYPCSFGQGTKLEIKR
# B5: COVIC-309 (antibody, V domains shown)
# VH: EVQLVESGGGLVQPGRSLRLSCAASGFTFDDYAMHWVRQAPGKGLEWVSGISWNSGSIGYADSVKGRFTISRDNAKNSLHLQMNSLRAEDTALYYCANLLTPPRRYSGYDLREDYFEYWGQGTLVTVSS
# VL: SSELTQDPAVSVALGQTVRITCQGDSLRSYYASWYQQKPGQAPVLVIYDRNNRPSGIPDRFSGSSSGNTASLTITGAQAEDEADYYCHSRDSSGNPLHVVFGGGTKLTVL
# B6: COVIC-333 (antibody, V domains shown)
# VH: QVQLVQSGAEVKKPGSSVRVSCKASGGTFISYTFNWVRQAPGQGLEWMGRIIPIFGIVNYAQKFQGRVTIAADKSTSTAYMELSSLRSEDTAMYYCATATVDYDSGEEQSSFDPWGQGTLVTVSS
# VL: EIVLTQSPGTLSLSPGERATLSCRASQSVSSSYLAWYQQKAGQTPRLLIYAASSRATGVPDRFSGSGSGTDFTLTISRLEAEDFAVYYCQQSWTFGQGTKVEIK
# B7: COVIC-265 (antibody, V domains shown)
# VH: QVQLVESGGGLVQPGGSLRLSCTVSGIDLSSYAMGWVRQAPGKGLEYIGIISGSGSTDYANWAKGRFTISRDNSKNTLYLQMNSLRAEDTAVYYCARAGYGVYGYAKYYGMDPWGQGTLVTVSS
# VL: DIQMTQSPSSLSASVGDRVTITCKASEDIHYGLNWYQQKPGKAPKLLIYGATTLESGVPSRFSGSGSGTDFTLTISSLQPEDFATYYCQQGYSTPLTFGGGTKVEIK
# B8: COVIC-93 (protein)
# chain: MSSSSWLLLSLVAVTAAQSTIEEQVKTFLDKFNHEAEDLFYQCSLASWNYNTNITEENVQNMNNACDKWSAFLCEQSTLAQMYPLQEIQDLTVKLQLQALQQNGSCVLSEDKSKRLNTILNTMSTIYCTGKVCNPDNPQECLLLEPGLNEIMANSLDYNERLWAWESWRSEVGKQLRPLYEEYVVLKNEMARANHYEDYGDYWRGDYEVNGVDGYDYSRGQLIEDVEHTFEEIKPLYEHLHAYVRAKLMNAYPSYISPTGPLPAHLLGDMWGRFWTNLYSLTVPFGQKPNIDVTDAMVDQAWDAQRIFKEAEKFFVSVGLPNMTQGFWENSMLTDPGNGQKVCCYPTAWDLGKGDFRILMCTKVTMDDFLTAHHEMGHIQYDMAYAAQPFLLRNGANEGFHEAVGEIMSLSAATPKHLKSIGLLSPDFQEDNETEINFLLKQALTIVGTLPFTYMLEKWRWMVFKGEIPKDQWMKKWWEMKREIVGVVEPVPHDETYMDPASLFHVSNDYSFIRYYTRTLYQFQFQEALCQAAKHEGPLHKCDISNSTEAGQKLFNMLRLGKSEPWTLALENVVGAKNMNVRPLLNYFEPLFTWLKDQNKNSFVGWSTDWSPYADQSIKVRISLKSALGDKAYEWNDNEMYLFRSSVAYAMRQYFLKVKNQMILFGEEDVRVANLKPRISFNFFVTAPKNVSDITPRTEVEKAIRMSRSRINDCFRLNDNSLEFLGIQPTLGPPNQPPVECPPCPAPPVAGPSVFLFPPKPKDTLMISRTPEVTCVVVDVSHEDPEVQFNWYVDGVEVHNAKTKPREEQFNSTFRVVSVLTVVHQDWLNGKEYKCKVSNKGLPAPIEKTISKTKGQPREPQVYTLPPSREEMTKNQVSLTCLVKGFYPSDISVEWESNGQPENNYKTTPPMLDSDGSFFLYSKLTVDKSRWQQGNVFSCSVLHEALHSHYTQKSLSLSPGK
# B9: COVIC-142 (antibody, V domains shown)
# VH: EVQLVESGGGLIQPGGSLRLSCAASGFTVSSNYMSWVRQAPGKGLEWVSVIYSGGSTYYADSVKGRFTISRDNSKNTLYLQMNSLRAEDTAVYYCARHITMVRGVIIYLKEWGQGTLVTVSS
# VL: DIVMTQSPSSLSASVGDRVTITCQASQDISNYLNWYQQKPGKAPKLLIYDASNLETGVPSRFSGSGSGTDFTFTISSLQPEDIATYYCQQCDNLPITFGQGTRLEIK
# B10: COVIC-305 (antibody, V domains shown)
# VH: QVQLVQSGAEVKKPGSSVRVSCKVSGYTFTGYYMHWVRQAPGQGLEWMGIINPSGGSTSYAQKFQGRVTMTRDTSTSTVYMELSSLRSEDTAVYYCARVRVGASDAFDIWGQGTMVTVSS
# VL: SYVLTQPPSVSVAPGQTARITCGGNNIGSKSVHWYQQKPGQAPVLVVYDDSDRPSGIPERFSGSNSGNTATLIISRVEAGDEADYYCQVWDSSSVHYVFGTGTKLTVLG
# B11: COVIC-131 (antibody, V domains shown)
# VH: EVQLVESGGGVVQPGRSLRLSCAASAFTFSSYDMHWVRQAPGKGLEWVAVISYDGSNKYYADSVKGRFTISRDNSKNTLYLQMNSLRAEDTAVYYCAKDGGKLWVYYFDYWGQGTTVTVSS
# VL: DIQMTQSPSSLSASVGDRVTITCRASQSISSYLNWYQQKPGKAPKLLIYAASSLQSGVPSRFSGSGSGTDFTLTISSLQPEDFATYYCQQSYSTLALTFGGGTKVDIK
# B12: COVIC-322 (antibody)
# chain 1: EVQLLESGGGLVQPGGSLRLSCAASGRTFSEYAMGWFRQAPGKGLEFVSTISWSGGSTYYADSVKGRFTISRDNSKNTLYLQMNSLRAEDTAVYYCAAAGLGTVVSEWDYDYDYWGQGTLVTVSSGGGGSGGGGSASTKGPSVFPLAPSSKSTSGGTAALGCLVKDYFPEPVTVSWNSGALTSGVHTFPAVLQSSGLYSLSSVVTVPSSSLGTQTYICNVNHKPSNTKVDKKVEPKSCDKTHTAPELLGGPSVFLFPPKPKDTLMISRTPEVTCVVVDVSHEDPEVKFNWYVDGVEVHNAKTKPREEQYNSTYRVVSVLTVLHQDWLNGKEYKCKVSNKALPAPIEKTISKAKGQPREPQVYTLPPSRDELTKNQVSLTCLVKGFYPSDIAVEWESNGQPENNYKTTPPVLDSDGSFFLYSKLTVDKSRWQQGNVFSCSVMHEALHNHYTQKSLSLSPGKKKKPLDGEYFTLQIRGRERFEMFRELNEALELKDAQAGKEPG
# chain 2: EVQLLESGGGLVQPGGSLRLSCAASGRTFSEYAMGWFRQAPGKGLEFVSTISWSGGSTYYADSVKGRFTISRDNSKNTLYLQMNSLRAEDTAVYYCAAAGLGTVVSEWDYDYDYWGQGTLVTVSSGGGGSGGGGSKRTVAAPSVFIFPPSDEQLKSGTASVVCLLNNFYPREAKVQWKVDNALQSGNSQESVTEQDSKDSTYSLSSTLTLSKADYEKHKVYACEVTHQGLSSPVTKSFNRGEC
# B13: COVIC-312 (antibody)
# chain 1: QVQLVQSGAEVKKPGSSVKVSCKASGGTFGISWVRQAPGQGLEWMGRIIPILGTANHAQKFQGRVTITADKSTGTVYMELSSLRSEDTAVYYCARDGDSGSYYETLGFDYWGQGTLVTVSSGGGGSGGGGSGGGGEVQLVESGGGLVKPGGSLRLSCAASGFTFSPYSMNWVRQAPGKGLEWVSSISVSNIYTYYADSVKGRFTISRDNAKNSLYLQMNSLRAEDTAIYYCARDLKKGGIQYDAFDIWGQGTVVTVSS
# chain 2: QSALTQPPSASGSPGQSVTISCTGTSSDVGGYNYVSWYQQHPGKAPKLMIYEVNKRPSGVPDRFSGSKSGNTASLTVSGLQAEDEADYYCSSYAGSNNLVFGGGTKLTVLGGGGSGGGGSGGGGEIVLTQSPATLSLSPGERATLSCRASQSVNDYLAWYQQKPGQAPRLLIYDASNRATGFPARFSGSGSGTDFTLTISSLEPEDFAVYYCQQRSNWPPTFGQGTRLEIK
# B14: COVIC-392 (antibody, V domains shown)
# VH: QVQLLESGGGLVQPGRSLRLSCAASGFTFDDYAMHWVRQPPGKGLEWVSGSSWNSGSVVYADSVKGRFTISRDSAKNSLHLQMNSLRVEDTALYYCAKAVDPTRGSYSPDYGFDIWGQGTMVTVS
# VL: not shown
# B15: COVIC-121 (antibody)
# chain: QVQLQESGGGLVQAGGSLRLSCAASGRTFSEYAMGWFRQAPGKEREFVATISWSGGSTYYTDSVKGRFTISRDNAKNTVYLQMNSLKPDDTAVYYCAAAGLGTVVSEWDYDYDYWGQGTQVTVSSGGSGGSQVQLQESGGGLVQAGGSLRLSCAASGRTFSEYAMGWFRQAPGKEREFVATISWSGGSTYYTDSVKGRFTISRDNAKNTVYLQMNSLKPDDTAVYYCAAAGLGTVVSEWDYDYDYWGQGTQVTVSSGGGGSGGGGSKKKPLDGEYFTLQIRGRERFEMFRELNEALELKDAQAGKEPGGGGGSGGGGSQVQLQESGGGLVQAGGSLRLSCAASGRTFSEYAMGWFRQAPGKEREFVATISWSGGSTYYTDSVKGRFTISRDNAKNTVYLQMNSLKPDDTAVYYCAAAGLGTVVSEWDYDYDYWGQGTQVTVSS
# B16: COVIC-306 (antibody, V domains shown)
# VH: QVQLVESGGGLVKPGGSLRLSCAASGFTVGSNYMSWVRQAPGKGLEWVSVIYSGGSTYYADSVKGRFTISRDNSKNTLYLQMNSLRAEDTAVYYCARGSSGAWYFDLWGRGTLVTVSS
# VL: EIVMTQSPSSLSASVGDSVTITCQASQDISNYLNWYQQKPGKAPKLLIYDASNLETGVPSRFSGGGSGTDFTLTITSLQPEDIATYYCQQYDNFPPTFGPGTKVDIKR
# B17: COVIC-22 (antibody, V domains shown)
# VH: EVQLLESGGGLVQPGGSLRLSCAASGFTFSRHAMNWVRQAPGKGLEWVSGISGSGDETYYADSVKGRFTISRDNSKNTLYLQMNSLRAEDTAVYYCARDLPASYYDSSGYYWHNGMDVWGQGTLVTVSS
# B18: COVIC-162 (antibody, V domains shown)
# VH: QLQLQESGPGLVKPSETLSLTCTVSGGSISNSNYYWGWIRQPPGKGLEWIGSIYYSGRTYYNPSLKSRVTISVDTSKNQFSLKLSSVTAADTAVYYCARMGLLWFGEFYGMDVWGQGTTVTVSS
# VL: DIQMTQSPSSLSASVGDRVTITCRASQGISSWLAWYQQKPEKAPKSLIYDASSLQRGVPSRFSGSGSGTDFTLTISSLQPEDFASYYCQQYNSYPLTFGGGTRVEIKR
# Molecular target: SARS-CoV-2 spike RBD (Wuhan-Hu-1) (Severe acute respiratory syndrome …, UniProt P0DTC2)
# Test: SPR
row,Binder,Kd
1,B1,2.06 nM
2,B2,1.87 nM
3,B3,22.3 nM
4,B4,14.7 nM
5,B5,104 nM
6,B6,0.0111 nM
7,B7,1.55 nM
8,B8,0.431 nM
9,B9,16.5 nM
10,B10,7.27 nM
11,B11,2.05 nM
12,B12,30.2 nM
13,B13,0.347 nM
14,B14,0.0871 nM
15,B15,195 nM
16,B16,26.3 nM
17,B17,0.414 nM
18,B18,191 nM

# Source: article PMC12014896 (2025)
